These results are taken from publication PMC2907309.

This assay addresses MazF (E. coli) (UniProt P0AE70).
Chain of UniProt P0AE70 (P0AE70 whole entry): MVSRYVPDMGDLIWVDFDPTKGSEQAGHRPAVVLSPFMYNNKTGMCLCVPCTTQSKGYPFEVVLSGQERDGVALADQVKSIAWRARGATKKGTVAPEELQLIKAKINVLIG

“His-MazE (from UniProt P0AE72 1-82) (natural protein)” registered a recovery of Luc production (end-point) in a cell-free reaction made of MazF crude extract, against the concentration of pure MazE added of 0.6 µM and a recovery of deGFP production (end-point) in a cell-free reaction made of MazF crude extract, against the concentration of pure MazE added of 0.4 µM.
